System: Escherichia coli TOP10
Assay: shrunken log2 fold change of peptide-encoding DNA abundance (4.5 h post-induction vs induction); higher = less antimicrobial activity (less host growth inhibition)
Conditions: time post-induction: 4.5 h; library: site-saturation at positions 5, 18, 19, 20
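Also: peptides expressed intracellularly from a pBAD plasmid library in pooled LB shake-flask culture, induced with 0.3% L-arabinose, DNA abundance read by NGS, three biological replicates, DESeq2 with apeglm shrinkage.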

Sequence | shrunken log2 fold change
RRIRRRPPRLPRPRPRPTFQPRP | 0.204
RRIRWRPPRLPRPRPRPPDKPRP | 0.423
RRIRKRPPRLPRPRPRPPYEPRP | 0.0908
RRIRMRPPRLPRPRPRPTLDPRP | 1.35
RRIRCRPPRLPRPRPRPDKDPRP | -0.0474
RRIRGRPPRLPRPRPRPPKCPRP | 1.63

Source: the supplement of paper PMC9112550, “Optimization of the antimicrobial peptide Bac7 by deep mutational scanning” (BMC Biology, 2022)
